This note sets out measurements from patent US20250388664A1 (BIOARCTIC, published 2025).

In assay [1] the target is T1, hTfR1 (recombinant, construct not specified) (human, UniProt P02786 89-760, limits assumed).
T1 construct: also called biotinylated hTfR1
The assay is described as follows: SPR (Biacore 8K), single-cycle kinetics, hTfR1 captured through its N-terminal DYKDDDDK tag, scFv injected in 5 steps (3-fold, from 700 or 400 nM). The procedure: Binding to hTfR1 of six different purified scFv variants from Example 24 was evaluated by surface plasmon resonance (SPR) using Biacore 8K (Cytiva). 30 μg/ml of […] Tag mAb FG4R (Thermo Fisher Scientific, MA1-91878) in 10 mM acetate buffer, pH 4.5 was immobilized on a CM5 sensor chip (Cytiva, #BR100399) using the amine coupling kit type 2 (Cytiva, #BR100633) according to the manufacturer's instruction, resulting in immobilization levels of approximately 10000 RU. hTfR1 was captured via an N-terminal […] tag. To this end, the receptor was injected over the chip with a contact time of 60 s at a flow rate of 10 μl/min. […] Interaction was measured using the single cycle kinetics method with a contact time of 120 s at a flow rate of 30 μl/min followed by a dissociation time of 600 s. Regeneration of the surface between cycles was done by injecting 10 mM glycine-HCl pH 1.7 with a contact time of 30 s and a flow rate of 30 μl/min. The binding modules were diluted in HBS-EP+ (Cytiva, #BR100669). Experiments were performed at 25° C.
(In SPR one partner is held on a chip, and binding of the other changes the refractive index at the surface.)

The target in assay [2] is T2, AβpE3-40 monomer (UniProt P05067 674-711, pyroglutamate at position 3 (N-terminal residue)).
T2 construct: range 3-40 (Aβ numbering); Synthetic peptide (Bachem/Anaspec), verified monomeric by SEC; also called monomeric AβpE3-40
T2 sequence (P05067 674-711): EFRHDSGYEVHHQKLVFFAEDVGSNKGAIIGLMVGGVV
The assay is described as follows: inhibition ELISA, antigen titrated in solution, AβpE3-40 coat. In general terms: ELISA stands for enzyme-linked immunosorbent assay.

Assay [3] has as its target T3, AβpE3-42 protofibrils (UniProt P05067 674-713, pyroglutamate at position 3 (N-terminal residue)).
T3 construct: range 3-42 (Aβ numbering); Soluble aggregates made from AβpE3-42 peptide, purified in the void peak of SEC; also called AβpE3-42 PF
Described as above.

The target in a further assay is T4, Aβ1-40 monomer (UniProt P05067 672-711).
T4 construct: range 1-40 (Aβ numbering)
T4 sequence (P05067 672-711): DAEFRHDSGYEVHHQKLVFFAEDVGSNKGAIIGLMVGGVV
The description is as above.

A further assay concerns the target T5, Aβ1-42 protofibrils (UniProt P05067 672-713).
T5 construct: range 1-42 (Aβ numbering); Soluble aggregates made from Aβ1-42 monomer
The assay is described as above.

For assay [4], the target named is T3, AβpE3-42 protofibrils. Briefly: SPR, protofibrils immobilised, antibody injected, 1:1 fit, apparent; binding to AβpE3-42 protofibrils; KD in pM. The procedure: (§1) Single cycle kinetics was also used to measure binding of the antibodies to AβpE3-42 protofibrils. […] Regeneration of the surface between cycles was done by injecting 30 μl 10 mM glycine-HCl pH 1.7. The binding data was fitted to a 1:1 interaction model.
(§2) In all SPR experiments, 1×HBS-EP+ (Cytiva, cat. no. BR100669) was used to dilute antibodies and target antigens. Experiments were performed at 25° C.
(§3) Affinity evaluation and KD determination by surface plasmon resonance: Binding interactions between antigens and antibodies were evaluated by SPR using a Biacore 8K instrument (Cytiva) according to standard procedures.

In assay [5] the target is T3, AβpE3-42 protofibrils. The assay is described as follows: SPR, protofibrils immobilised, antibody injected, 1:1 fit, apparent. The procedure: as §1, §2, §3
Assay [6] has as its target T2, AβpE3-40 monomer. Briefly: SPR, antibody immobilised, monomer injected, 1:1 fit. On the procedure:
Single cycle kinetics with the antibodies immobilized on a CM5 chip was used to measure the binding of the antibodies to the AβpE3-40 monomer. For the measurements, 5 μg/ml of analyte antibody was immobilized on the chip. […] Regeneration of the surface between cycles was done by injecting 30 μl 3 M MgCl₂. The binding data was fitted to a 1:1 interaction model.
as §2, §3

T1 sequence (P02786 89-760 limits assumed): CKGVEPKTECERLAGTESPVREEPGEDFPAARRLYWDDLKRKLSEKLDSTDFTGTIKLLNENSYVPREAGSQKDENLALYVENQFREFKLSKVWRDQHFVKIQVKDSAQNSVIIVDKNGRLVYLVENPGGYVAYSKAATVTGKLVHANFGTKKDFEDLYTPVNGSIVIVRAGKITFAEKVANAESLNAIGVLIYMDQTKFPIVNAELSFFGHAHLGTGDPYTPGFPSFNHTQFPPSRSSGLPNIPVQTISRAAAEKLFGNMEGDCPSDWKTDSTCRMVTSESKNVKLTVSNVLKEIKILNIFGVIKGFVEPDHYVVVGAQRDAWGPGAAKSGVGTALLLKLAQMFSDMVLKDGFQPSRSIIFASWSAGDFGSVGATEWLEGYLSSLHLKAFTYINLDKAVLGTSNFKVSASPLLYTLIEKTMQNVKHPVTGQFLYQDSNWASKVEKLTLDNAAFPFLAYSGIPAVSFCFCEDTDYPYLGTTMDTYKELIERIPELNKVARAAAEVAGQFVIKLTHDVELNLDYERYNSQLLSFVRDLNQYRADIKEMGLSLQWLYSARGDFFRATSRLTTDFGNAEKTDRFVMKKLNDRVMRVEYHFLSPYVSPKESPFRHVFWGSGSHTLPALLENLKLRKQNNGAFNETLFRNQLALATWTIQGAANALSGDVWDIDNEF
T5 sequence (P05067 672-713): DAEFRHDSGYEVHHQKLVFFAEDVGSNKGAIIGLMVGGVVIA
T3 sequence (P05067 674-713): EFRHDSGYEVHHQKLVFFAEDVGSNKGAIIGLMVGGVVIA

B1: h26D3-HC6 (scFv)
scFv: EVQLVQSGAEVKKPGSSVKVSCKASGYIFTDYNMDWVRQAPGQGLEWIGDINPDADTTSYNEKFKGRATLTVDKSTSTAYMELSSLRSEDTAVYYCARGGYSGSSYYHPMDYWGQGTLVTVSSGGGGSGGGGSGGGGSDIQMTQSPSSVSASVGDRVTITCKSSQSLLYSTNQKNYLAWYQQKPGKAPKLLIYWASTRESGVPSRFSGSGSGTDFTLTISSLQPEDFATYYCQQYFIYPRTFGQGTKVEIK
notes: also called scFv h26D3-HC6
Consider B1, for which the binding result in assay [1] is “binds”.

B2: h26D3-HC6_DS (scFv)
scFv: EVQLVQSGAEVKKPGSSVKVSCKASGYIFTDYNMDWVRQAPGQCLEWIGDINPDADTTSYNEKFKGRATLTVDKSTSTAYMELSSLRSEDTAVYYCARGGYSGSSYYHPMDYWGQGTLVTVSSGGGGSGGGGSGGGGSDIQMTQSPSSVSASVGDRVTITCKSSQSLLYSTNQKNYLAWYQQKPGKAPKLLIYWASTRESGVPSRFSGSGSGTDFTLTISSLQPEDFATYYCQQYFIYPRTFGCGTKVEIK
In the case of B2, the binding result in assay [1] was “binds”.

B3: h26D3-LC1 (scFv)
scFv: EVQLVQSGAEVKKPGSSVKVSCKASGYIFTDYNMDWVRQAPGQGLEWIGDINPDYDTTSYNEKFKGRATLTVDKSTSTAYMELSSLRSEDTAVYYCARGGYSGSSYYHPMDYWGQGTLVTVSSGGGGSGGGGSGGGGSDIQMTQSPSSVSASVGDRVTITCKSSQSLLASTNQKNYLAWYQQKPGKAPKLLIYWASTRESGVPSRFSGSGSGTDFTLTISSLQPEDFATYYCQQYFIYPRTFGQGTKVEIK
For B3, in assay [1], the binding result was “binds”.

B4: h26D3-HC6, VL-first (scFv)
scFv: DIQMTQSPSSVSASVGDRVTITCKSSQSLLYSTNQKNYLAWYQQKPGKAPKLLIYWASTRESGVPSRFSGSGSGTDFTLTISSLQPEDFATYYCQQYFIYPRTFGQGTKVEIKGGGGSGGGGSGGGGSEVQLVQSGAEVKKPGSSVKVSCKASGYIFTDYNMDWVRQAPGQGLEWIGDINPDADTTSYNEKFKGRATLTVDKSTSTAYMELSSLRSEDTAVYYCARGGYSGSSYYHPMDYWGQGTLVTVSS
With B4, the binding result in assay [1] is “binds”.

B5: h26D3-LC1_DS, VL-first (scFv)
scFv: DIQMTQSPSSVSASVGDRVTITCKSSQSLLASTNQKNYLAWYQQKPGKAPKLLIYWASTRESGVPSRFSGSGSGTDFTLTISSLQPEDFATYYCQQYFIYPRTFGCGTKVEIKGGGGSGGGGSGGGGSGGGGSEVQLVQSGAEVKKPGSSVKVSCKASGYIFTDYNMDWVRQAPGQCLEWIGDINPDYDTTSYNEKFKGRATLTVDKSTSTAYMELSSLRSEDTAVYYCARGGYSGSSYYHPMDYWGQGTLVTVSS
Turning to B5, in assay [1], the binding result is “binds”.

B6: H2L7-K12V/R71A/R83T (antibody, human IgG1, kappa)
heavy: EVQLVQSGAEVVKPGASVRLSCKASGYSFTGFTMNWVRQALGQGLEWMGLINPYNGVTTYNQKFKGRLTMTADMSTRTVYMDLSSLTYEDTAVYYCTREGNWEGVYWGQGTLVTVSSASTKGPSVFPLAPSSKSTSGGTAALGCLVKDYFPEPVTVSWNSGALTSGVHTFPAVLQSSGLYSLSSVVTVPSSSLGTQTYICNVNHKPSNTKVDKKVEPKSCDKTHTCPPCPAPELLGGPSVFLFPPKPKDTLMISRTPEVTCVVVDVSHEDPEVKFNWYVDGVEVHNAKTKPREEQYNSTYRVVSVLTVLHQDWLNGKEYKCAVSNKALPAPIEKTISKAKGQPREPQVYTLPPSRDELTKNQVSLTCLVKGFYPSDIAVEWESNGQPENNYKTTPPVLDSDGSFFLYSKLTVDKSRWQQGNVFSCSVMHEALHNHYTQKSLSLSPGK
light: EIVLTQSPLSLSVTLGQSASISCRSSQSLLDSNGKTYLHWFILRPGQSPRRLIYLVSILDSGVPDRFSGSGSGTDFTLKISRVEAEDVGVYYCVQGTHFPFTFGSGTKLEIKRTVAAPSVFIFPPSDEQLKSGTASVVCLLNNFYPREAKVQWKVDNALQSGNSQESVTEQDSKDSTYSLSSTLTLSKADYEKHKVYACEVTHQGLSSPVTKSFNRGEC
notes: VH variant of H2L7; VL and constant domains identical to H2L7
For orientation: IC50 means the midpoint of a concentration-inhibition curve. Read a low IC50 as higher potency. What is called koff is the first-order rate constant of dissociation. In general, kon refers to a measure of how fast the partners come together. Take B6: the IC50 with AβpE3-40 monomer [2] was 2.29 nM; with AβpE3-42 protofibrils [3], 4.9 nM; with Aβ1-40 monomer, more than 500 nM; with Aβ1-42 protofibrils it was more than 132 nM. Moreover, the Kd with AβpE3-42 protofibrils [4] turned out to be 0.427 nM; with AβpE3-40 monomer [6] it was 4.04 nM. Further, the results for the koff with AβpE3-42 protofibrils [5] and with AβpE3-40 monomer [6] were 2.45e-05 s⁻¹ and 0.000234 s⁻¹, respectively. Moreover, the kon with AβpE3-42 protofibrils [5] was 57600 M⁻¹ s⁻¹; with AβpE3-40 monomer [6], 58700 M⁻¹ s⁻¹.

B7: H2L7-R71A (antibody, human IgG1, kappa)
heavy: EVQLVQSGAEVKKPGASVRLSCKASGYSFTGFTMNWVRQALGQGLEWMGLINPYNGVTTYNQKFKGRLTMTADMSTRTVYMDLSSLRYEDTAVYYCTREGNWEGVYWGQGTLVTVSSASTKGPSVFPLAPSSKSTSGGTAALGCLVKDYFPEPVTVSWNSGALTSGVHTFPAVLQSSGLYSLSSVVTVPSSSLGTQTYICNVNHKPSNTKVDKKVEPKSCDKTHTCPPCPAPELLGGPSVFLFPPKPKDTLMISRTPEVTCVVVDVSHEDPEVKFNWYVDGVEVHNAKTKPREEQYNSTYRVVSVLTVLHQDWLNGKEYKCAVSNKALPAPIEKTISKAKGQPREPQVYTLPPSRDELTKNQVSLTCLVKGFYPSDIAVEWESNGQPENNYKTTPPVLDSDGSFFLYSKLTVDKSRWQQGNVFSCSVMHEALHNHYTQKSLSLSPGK
light: EIVLTQSPLSLSVTLGQSASISCRSSQSLLDSNGKTYLHWFILRPGQSPRRLIYLVSILDSGVPDRFSGSGSGTDFTLKISRVEAEDVGVYYCVQGTHFPFTFGSGTKLEIKRTVAAPSVFIFPPSDEQLKSGTASVVCLLNNFYPREAKVQWKVDNALQSGNSQESVTEQDSKDSTYSLSSTLTLSKADYEKHKVYACEVTHQGLSSPVTKSFNRGEC
notes: as for B6
Consider B7, for which the IC50 was 2.54 nM with AβpE3-40 monomer [2], 4.59 nM with AβpE3-42 protofibrils [3], more than 500 nM in the assay with Aβ1-40 monomer and more than 132 nM with Aβ1-42 protofibrils. The values for the Kd with AβpE3-42 protofibrils [4] and in the assay with AβpE3-40 monomer [6] were 0.376 nM and 4.62 nM, respectively. In addition, the results for the koff in the assay with AβpE3-42 protofibrils [5] and with AβpE3-40 monomer [6] were 2.54e-05 s⁻¹ and 0.000225 s⁻¹, respectively. In addition, the kon was determined as 67700 M⁻¹ s⁻¹ with AβpE3-42 protofibrils [5] and 50100 M⁻¹ s⁻¹ with AβpE3-40 monomer [6].

B8: H2L7-R71A/R83T (antibody, human IgG1, kappa)
heavy: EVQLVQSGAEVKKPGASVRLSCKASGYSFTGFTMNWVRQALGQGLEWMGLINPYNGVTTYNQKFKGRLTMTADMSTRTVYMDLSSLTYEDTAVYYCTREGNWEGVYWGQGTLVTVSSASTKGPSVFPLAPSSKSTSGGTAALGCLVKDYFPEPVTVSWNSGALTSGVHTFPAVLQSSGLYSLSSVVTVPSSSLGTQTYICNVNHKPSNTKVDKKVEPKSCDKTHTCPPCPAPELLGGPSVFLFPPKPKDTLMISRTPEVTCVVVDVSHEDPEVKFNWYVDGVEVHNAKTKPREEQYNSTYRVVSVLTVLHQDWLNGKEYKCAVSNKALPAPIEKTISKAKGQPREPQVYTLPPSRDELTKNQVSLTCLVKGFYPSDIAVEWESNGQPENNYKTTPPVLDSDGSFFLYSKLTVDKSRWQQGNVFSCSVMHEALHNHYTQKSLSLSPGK
light: EIVLTQSPLSLSVTLGQSASISCRSSQSLLDSNGKTYLHWFILRPGQSPRRLIYLVSILDSGVPDRFSGSGSGTDFTLKISRVEAEDVGVYYCVQGTHFPFTFGSGTKLEIKRTVAAPSVFIFPPSDEQLKSGTASVVCLLNNFYPREAKVQWKVDNALQSGNSQESVTEQDSKDSTYSLSSTLTLSKADYEKHKVYACEVTHQGLSSPVTKSFNRGEC
notes: as for B6
Take B8: the IC50 in the assay with AβpE3-40 monomer [2] is 2.77 nM; in the assay with AβpE3-42 protofibrils [3], 5.44 nM; with Aβ1-40 monomer it was more than 500 nM; with Aβ1-42 protofibrils, more than 132 nM. In addition, the Kd with AβpE3-42 protofibrils [4] stood at 0.471 nM; with AβpE3-40 monomer [6], 4.72 nM. Also, the koff is 2.73e-05 s⁻¹ with AβpE3-42 protofibrils [5] and 0.000235 s⁻¹ with AβpE3-40 monomer [6]. For the same molecule, the kon is 57400 M⁻¹ s⁻¹ with AβpE3-42 protofibrils [5] and 50900 M⁻¹ s⁻¹ with AβpE3-40 monomer [6].
